The values that follow come from article PMC6743330.

The assay addresses PtmU3 (Streptomyces platensis CB00739). The assay can be described thus: SEC. Background: Size exclusion chromatography separates by hydrodynamic size, large species first.

Usually stoichiometry N stands for a count of units in the complex or per binding partner. Substance PtmU3 (enzyme) registered a stoichiometry N of 2.
